Values belong to the sequence of their own block, whether it stands above or below them.
Legend:
AncSZ = assay: phosphorylation enrichment, bacterial display (enrichment ratio); higher = better substrate or ligand; peptides without Tyr show the background
EPHB1 = EPHB1 (UniProt P54762); assay: as above
EPHB2 = EPHB2 (UniProt P29323); assay: as above
FGFR1 = FGFR1 (UniProt P11362); assay: as above
FGFR3 = FGFR3 (UniProt P22607); assay: as above
Fer (mouse) = assay: as above
Fes = Fes (UniProt P07332); assay: as above
Fyn = Fyn (UniProt P06241); assay: as above
Hck = Hck (UniProt P08631); assay: as above
Jak2 = Jak2 (UniProt O60674); assay: as above
MERTK = MERTK (UniProt Q12866); assay: as above
c-Abl (mouse) = assay: as above
c-Src = assay: as above
Grb2 SH2 = Grb2 SH2 (UniProt P62993); assay: SH2 binding enrichment of the phosphorylated peptide, bacterial display (enrichment ratio); higher = better substrate or ligand; peptides without Tyr show the background
SHP2-C SH2 = assay: as above
c-Src SH2 = assay: as above
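For SH2 binding enrichment of the phosphorylated peptide, bacterial display in this document: peptide library displayed on the E. coli surface as eCPX fusions, selected cells deep-sequenced, score is each peptide's frequency after selection divided by its frequency in the input.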
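For phosphorylation enrichment, bacterial display in this document: 11-residue human phosphosite peptides and single-mutation variants displayed on the E. coli surface, counted by deep sequencing, each peptide's frequency after selection divided by its frequency in the unselected input library; frequency after pTyr selection over input frequency; kinase dosed for 20-30% of maximal phosphorylation in three min.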

Sequence of FGFR3 (P22607 whole entry, looked up): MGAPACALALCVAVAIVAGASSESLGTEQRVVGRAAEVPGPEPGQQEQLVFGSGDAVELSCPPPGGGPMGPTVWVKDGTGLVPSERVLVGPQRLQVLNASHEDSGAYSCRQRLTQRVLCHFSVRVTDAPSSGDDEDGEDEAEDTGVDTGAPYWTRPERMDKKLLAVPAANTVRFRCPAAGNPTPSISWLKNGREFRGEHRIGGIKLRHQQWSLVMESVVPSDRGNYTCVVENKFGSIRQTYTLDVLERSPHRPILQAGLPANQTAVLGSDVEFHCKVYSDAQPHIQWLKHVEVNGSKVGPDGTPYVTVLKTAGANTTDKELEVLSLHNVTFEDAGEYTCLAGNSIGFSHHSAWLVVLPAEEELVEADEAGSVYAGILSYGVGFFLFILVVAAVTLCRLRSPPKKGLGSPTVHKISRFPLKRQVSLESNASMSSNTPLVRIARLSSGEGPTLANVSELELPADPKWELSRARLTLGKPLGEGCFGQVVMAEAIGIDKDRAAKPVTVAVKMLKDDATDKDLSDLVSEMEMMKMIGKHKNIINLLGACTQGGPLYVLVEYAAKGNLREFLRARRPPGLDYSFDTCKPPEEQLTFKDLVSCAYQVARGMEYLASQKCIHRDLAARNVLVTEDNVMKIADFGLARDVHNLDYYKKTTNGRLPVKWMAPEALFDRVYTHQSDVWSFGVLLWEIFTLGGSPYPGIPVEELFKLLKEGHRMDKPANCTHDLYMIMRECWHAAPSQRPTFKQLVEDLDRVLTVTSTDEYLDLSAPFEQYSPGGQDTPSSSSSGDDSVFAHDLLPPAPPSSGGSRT
Sequence of Fes (P07332 whole entry, looked up): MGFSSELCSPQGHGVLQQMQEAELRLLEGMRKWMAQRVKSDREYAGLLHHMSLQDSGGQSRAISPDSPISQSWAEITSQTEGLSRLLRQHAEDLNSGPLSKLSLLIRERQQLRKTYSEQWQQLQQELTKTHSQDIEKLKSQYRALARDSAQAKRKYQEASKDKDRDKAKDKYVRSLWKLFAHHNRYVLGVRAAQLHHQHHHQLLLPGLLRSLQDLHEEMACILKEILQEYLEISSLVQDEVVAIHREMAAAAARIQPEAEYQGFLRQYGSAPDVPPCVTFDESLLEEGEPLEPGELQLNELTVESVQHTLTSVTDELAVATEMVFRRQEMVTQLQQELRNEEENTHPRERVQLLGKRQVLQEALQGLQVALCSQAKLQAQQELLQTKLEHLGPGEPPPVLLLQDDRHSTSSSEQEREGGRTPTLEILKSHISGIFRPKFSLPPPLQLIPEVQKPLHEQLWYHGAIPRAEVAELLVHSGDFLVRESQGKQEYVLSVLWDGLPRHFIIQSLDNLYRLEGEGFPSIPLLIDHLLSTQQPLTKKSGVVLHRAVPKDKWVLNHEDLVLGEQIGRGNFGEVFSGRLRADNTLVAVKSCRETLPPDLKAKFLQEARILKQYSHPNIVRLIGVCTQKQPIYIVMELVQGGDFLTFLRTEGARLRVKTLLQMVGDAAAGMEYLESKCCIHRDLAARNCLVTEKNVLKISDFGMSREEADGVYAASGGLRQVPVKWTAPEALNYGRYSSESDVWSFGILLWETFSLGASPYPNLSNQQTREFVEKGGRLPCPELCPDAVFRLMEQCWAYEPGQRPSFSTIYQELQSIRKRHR
Sequence of Jak2 (O60674 whole entry, looked up): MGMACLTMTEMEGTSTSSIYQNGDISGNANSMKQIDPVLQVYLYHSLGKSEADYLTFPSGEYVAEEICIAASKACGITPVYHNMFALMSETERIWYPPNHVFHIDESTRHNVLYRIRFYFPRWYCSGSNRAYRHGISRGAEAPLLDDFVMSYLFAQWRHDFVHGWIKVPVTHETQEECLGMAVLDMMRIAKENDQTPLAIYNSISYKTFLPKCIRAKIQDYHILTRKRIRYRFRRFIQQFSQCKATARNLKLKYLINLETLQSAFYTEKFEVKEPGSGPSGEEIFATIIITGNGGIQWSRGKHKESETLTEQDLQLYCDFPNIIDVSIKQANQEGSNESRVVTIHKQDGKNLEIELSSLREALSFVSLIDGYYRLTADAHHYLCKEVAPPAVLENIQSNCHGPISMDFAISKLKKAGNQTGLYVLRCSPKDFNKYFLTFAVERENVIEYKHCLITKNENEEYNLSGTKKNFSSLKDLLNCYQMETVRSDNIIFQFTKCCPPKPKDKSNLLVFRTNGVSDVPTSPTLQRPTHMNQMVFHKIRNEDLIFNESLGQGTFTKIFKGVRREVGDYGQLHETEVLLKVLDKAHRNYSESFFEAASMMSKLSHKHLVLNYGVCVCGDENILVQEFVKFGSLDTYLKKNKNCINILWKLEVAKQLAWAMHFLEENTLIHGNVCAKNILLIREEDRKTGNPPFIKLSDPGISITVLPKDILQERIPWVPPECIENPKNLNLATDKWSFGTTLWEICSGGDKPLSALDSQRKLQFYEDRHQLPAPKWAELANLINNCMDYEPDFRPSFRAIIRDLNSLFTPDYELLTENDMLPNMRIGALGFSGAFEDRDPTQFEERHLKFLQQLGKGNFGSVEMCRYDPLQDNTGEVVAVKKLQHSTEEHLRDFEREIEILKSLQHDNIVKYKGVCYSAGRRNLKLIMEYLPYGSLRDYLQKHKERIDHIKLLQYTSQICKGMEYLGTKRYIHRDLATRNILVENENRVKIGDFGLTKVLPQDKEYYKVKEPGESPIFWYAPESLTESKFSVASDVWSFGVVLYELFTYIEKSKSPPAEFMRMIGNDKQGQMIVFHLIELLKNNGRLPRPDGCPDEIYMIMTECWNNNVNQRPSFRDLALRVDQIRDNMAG
Sequence of FGFR1 (P11362 whole entry, looked up): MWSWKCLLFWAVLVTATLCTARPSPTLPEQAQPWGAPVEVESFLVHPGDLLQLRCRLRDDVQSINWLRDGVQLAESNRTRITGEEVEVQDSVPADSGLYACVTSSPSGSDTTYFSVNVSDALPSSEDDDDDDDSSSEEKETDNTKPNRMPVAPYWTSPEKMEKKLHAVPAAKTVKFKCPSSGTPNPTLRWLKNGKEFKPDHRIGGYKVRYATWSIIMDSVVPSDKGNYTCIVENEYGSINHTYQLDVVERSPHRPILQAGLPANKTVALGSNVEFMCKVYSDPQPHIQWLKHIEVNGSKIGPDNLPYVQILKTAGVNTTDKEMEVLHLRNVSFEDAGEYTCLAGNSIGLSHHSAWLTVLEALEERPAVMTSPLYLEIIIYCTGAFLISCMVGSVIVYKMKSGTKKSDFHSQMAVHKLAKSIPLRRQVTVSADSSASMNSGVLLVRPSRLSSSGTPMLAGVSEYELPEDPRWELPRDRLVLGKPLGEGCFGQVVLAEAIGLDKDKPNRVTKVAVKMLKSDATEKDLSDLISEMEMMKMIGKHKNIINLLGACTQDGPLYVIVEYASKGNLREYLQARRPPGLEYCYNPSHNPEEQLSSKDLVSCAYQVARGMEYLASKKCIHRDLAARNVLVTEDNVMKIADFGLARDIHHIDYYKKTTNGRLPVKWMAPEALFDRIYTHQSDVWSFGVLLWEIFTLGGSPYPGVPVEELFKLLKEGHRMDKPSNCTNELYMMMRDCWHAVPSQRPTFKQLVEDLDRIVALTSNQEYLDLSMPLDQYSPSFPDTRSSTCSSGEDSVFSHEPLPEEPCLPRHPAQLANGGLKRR
Sequence of MERTK (Q12866 whole entry, looked up): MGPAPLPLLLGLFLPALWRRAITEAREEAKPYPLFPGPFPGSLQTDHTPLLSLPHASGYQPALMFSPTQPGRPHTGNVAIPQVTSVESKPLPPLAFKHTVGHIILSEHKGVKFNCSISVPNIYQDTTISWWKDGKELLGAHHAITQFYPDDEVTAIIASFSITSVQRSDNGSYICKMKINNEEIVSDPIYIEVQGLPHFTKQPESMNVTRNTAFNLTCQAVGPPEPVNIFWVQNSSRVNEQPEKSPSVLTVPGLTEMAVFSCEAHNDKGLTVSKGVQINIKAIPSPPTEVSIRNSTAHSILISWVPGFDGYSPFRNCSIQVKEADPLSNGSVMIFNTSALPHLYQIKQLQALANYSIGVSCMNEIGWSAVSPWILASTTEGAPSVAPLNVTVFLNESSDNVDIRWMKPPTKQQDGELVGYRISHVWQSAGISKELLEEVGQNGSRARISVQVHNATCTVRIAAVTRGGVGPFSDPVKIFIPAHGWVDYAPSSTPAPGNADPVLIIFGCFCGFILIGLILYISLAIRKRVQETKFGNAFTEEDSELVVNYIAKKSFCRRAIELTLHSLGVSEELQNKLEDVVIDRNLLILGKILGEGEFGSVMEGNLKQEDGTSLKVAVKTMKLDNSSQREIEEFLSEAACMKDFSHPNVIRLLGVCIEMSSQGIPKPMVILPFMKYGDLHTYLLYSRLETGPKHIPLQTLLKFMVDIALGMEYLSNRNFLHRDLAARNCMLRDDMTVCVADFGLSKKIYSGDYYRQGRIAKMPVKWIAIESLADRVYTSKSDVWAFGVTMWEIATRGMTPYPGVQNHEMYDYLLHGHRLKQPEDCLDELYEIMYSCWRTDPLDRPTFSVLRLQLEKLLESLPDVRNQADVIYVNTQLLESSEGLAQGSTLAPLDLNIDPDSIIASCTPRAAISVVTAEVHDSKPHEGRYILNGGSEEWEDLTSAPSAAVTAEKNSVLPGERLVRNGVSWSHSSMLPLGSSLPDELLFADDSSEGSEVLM

- SH2 binding enrichment (Grb2 SH2): 0.683
- SH2 binding enrichment (SHP2-C SH2): 0.584
- SH2 binding enrichment (c-Src SH2): 0.419
Sequence: GDGRFYMMEAI [PGM1_Y66_K68M]
- phosphorylation enrichment (AncSZ): 1.04
- phosphorylation enrichment (EPHB1): 0.569
- phosphorylation enrichment (EPHB2): 0.553
- phosphorylation enrichment (FGFR1): 0.511
- phosphorylation enrichment (FGFR3): 0.731
- phosphorylation enrichment (Fer (mouse)): 0.539
- phosphorylation enrichment (Fes): 1.26
- phosphorylation enrichment (Fyn): 0.51
- phosphorylation enrichment (Hck): 0.459
- phosphorylation enrichment (Jak2): 1.16
- phosphorylation enrichment (MERTK): 0.46
- phosphorylation enrichment (c-Abl (mouse)): 0.735
- phosphorylation enrichment (c-Src): 0.88

- SH2 binding enrichment (Grb2 SH2): 0.957
- SH2 binding enrichment (SHP2-C SH2): 0.601
- SH2 binding enrichment (c-Src SH2): 0.455
Sequence: SARFHYLMAEK [LDHB_Y173_R172H]
- phosphorylation enrichment (AncSZ): 0.666
- phosphorylation enrichment (EPHB1): 0.463
- phosphorylation enrichment (EPHB2): 0.403
- phosphorylation enrichment (FGFR1): 0.445
- phosphorylation enrichment (FGFR3): 0.751
- phosphorylation enrichment (Fer (mouse)): 0.473
- phosphorylation enrichment (Fes): 0.661
- phosphorylation enrichment (Fyn): 0.564
- phosphorylation enrichment (Hck): 0.455
- phosphorylation enrichment (Jak2): 0.455
- phosphorylation enrichment (MERTK): 0.499
- phosphorylation enrichment (c-Abl (mouse)): 0.372
- phosphorylation enrichment (c-Src): 0.403

- SH2 binding enrichment (Grb2 SH2): 0.68
- SH2 binding enrichment (SHP2-C SH2): 0.553
- SH2 binding enrichment (c-Src SH2): 0.409
Sequence: YRVAGYKTQGG [TIA1_Y383_E384K]
- phosphorylation enrichment (AncSZ): 0.509
- phosphorylation enrichment (EPHB1): 0.368
- phosphorylation enrichment (EPHB2): 0.309
- phosphorylation enrichment (FGFR1): 0.434
- phosphorylation enrichment (FGFR3): 0.376
- phosphorylation enrichment (Fer (mouse)): 0.363
- phosphorylation enrichment (Fes): 0.461
- phosphorylation enrichment (Fyn): 0.494
- phosphorylation enrichment (Hck): 0.366
- phosphorylation enrichment (Jak2): 0.42
- phosphorylation enrichment (MERTK): 0.312
- phosphorylation enrichment (c-Abl (mouse)): 1.98
- phosphorylation enrichment (c-Src): 0.435

- SH2 binding enrichment (Grb2 SH2): 1.01
- SH2 binding enrichment (SHP2-C SH2): 0.843
- SH2 binding enrichment (c-Src SH2): 0.436
Sequence: RVDRDYVLKST [HTATIP2_Y111_A116T]
- phosphorylation enrichment (AncSZ): 0.961
- phosphorylation enrichment (EPHB1): 0.492
- phosphorylation enrichment (EPHB2): 0.659
- phosphorylation enrichment (FGFR1): 0.526
- phosphorylation enrichment (FGFR3): 0.529
- phosphorylation enrichment (Fer (mouse)): 0.511
- phosphorylation enrichment (Fes): 0.823
- phosphorylation enrichment (Fyn): 0.65
- phosphorylation enrichment (Hck): 0.578
- phosphorylation enrichment (Jak2): 0.436
- phosphorylation enrichment (MERTK): 0.487
- phosphorylation enrichment (c-Abl (mouse)): 0.369
- phosphorylation enrichment (c-Src): 0.388

- SH2 binding enrichment (Grb2 SH2): 0.75
- SH2 binding enrichment (SHP2-C SH2): 0.559
- SH2 binding enrichment (c-Src SH2): 0.5
Sequence: PIPAAYNRYDQ [CDC73_Y290]
- phosphorylation enrichment (AncSZ): 0.71
- phosphorylation enrichment (EPHB1): 0.433
- phosphorylation enrichment (EPHB2): 0.571
- phosphorylation enrichment (FGFR1): 0.541
- phosphorylation enrichment (FGFR3): 0.621
- phosphorylation enrichment (Fer (mouse)): 0.593
- phosphorylation enrichment (Fes): 0.751
- phosphorylation enrichment (Fyn): 0.736
- phosphorylation enrichment (Hck): 0.507
- phosphorylation enrichment (Jak2): 0.416
- phosphorylation enrichment (MERTK): 0.263
- phosphorylation enrichment (c-Abl (mouse)): 0.572
- phosphorylation enrichment (c-Src): 0.342

- SH2 binding enrichment (Grb2 SH2): 0.62
- SH2 binding enrichment (SHP2-C SH2): 0.679
- SH2 binding enrichment (c-Src SH2): 0.582
Sequence: RRAKGYPIFLF [ITGB2_Y125_D128Y_YF]
- phosphorylation enrichment (AncSZ): 0.632
- phosphorylation enrichment (EPHB1): 0.351
- phosphorylation enrichment (EPHB2): 0.739
- phosphorylation enrichment (FGFR1): 0.561
- phosphorylation enrichment (FGFR3): 0.63
- phosphorylation enrichment (Fer (mouse)): 0.581
- phosphorylation enrichment (Fes): 0.741
- phosphorylation enrichment (Fyn): 0.624
- phosphorylation enrichment (Hck): 0.548
- phosphorylation enrichment (Jak2): 1.12
- phosphorylation enrichment (MERTK): 0.524
- phosphorylation enrichment (c-Abl (mouse)): 0.854
- phosphorylation enrichment (c-Src): 0.857

- SH2 binding enrichment (Grb2 SH2): 0.881
- SH2 binding enrichment (SHP2-C SH2): 0.882
- SH2 binding enrichment (c-Src SH2): 0.48
Sequence: TYGVAYRAKDK [CDK11B_Y453_V452A]
- phosphorylation enrichment (AncSZ): 0.712
- phosphorylation enrichment (EPHB1): 0.357
- phosphorylation enrichment (EPHB2): 0.592
- phosphorylation enrichment (FGFR1): 0.791
- phosphorylation enrichment (FGFR3): 0.537
- phosphorylation enrichment (Fer (mouse)): 0.38
- phosphorylation enrichment (Fes): 0.807
- phosphorylation enrichment (Fyn): 0.812
- phosphorylation enrichment (Hck): 1.15
- phosphorylation enrichment (Jak2): 0.578
- phosphorylation enrichment (MERTK): 0.621
- phosphorylation enrichment (c-Abl (mouse)): 0.567
- phosphorylation enrichment (c-Src): 0.829

- SH2 binding enrichment (Grb2 SH2): 1.16
- SH2 binding enrichment (SHP2-C SH2): 0.606
- SH2 binding enrichment (c-Src SH2): 0.537
Sequence: RDGDRYFKGIV [DCX_Y64_N60D]
- phosphorylation enrichment (AncSZ): 0.427
- phosphorylation enrichment (EPHB1): 0.343
- phosphorylation enrichment (EPHB2): 0.427
- phosphorylation enrichment (FGFR1): 0.574
- phosphorylation enrichment (FGFR3): 0.491
- phosphorylation enrichment (Fer (mouse)): 0.316
- phosphorylation enrichment (Fes): 1.1
- phosphorylation enrichment (Fyn): 0.308
- phosphorylation enrichment (Hck): 0.437
- phosphorylation enrichment (Jak2): 0.609
- phosphorylation enrichment (MERTK): 0.374
- phosphorylation enrichment (c-Abl (mouse)): 0.485
- phosphorylation enrichment (c-Src): 0.382

From the supplement of paper PMC10065799, “High-throughput profiling of sequence recognition by tyrosine kinases and SH2 domains using bacterial peptide display” (eLife, 2023)
